Values of other authors as cited in paper PMC7669891.

Experiments:
14-3-3τ (Homo sapiens) = 14-3-3τ (Homo sapiens) (UniProt P27348); assay: FP
14-3-3γ (Homo sapiens) = 14-3-3γ (Homo sapiens) (UniProt P61981); assay: FP
14-3-3ε (Homo sapiens) = 14-3-3ε (Homo sapiens) (UniProt P62258); assay: FP
14-3-3σ (Homo sapiens) [1] = target: 14-3-3σ (Homo sapiens) (UniProt P31947); assay: FP
p53 CTD (Homo sapiens) [2] = target: p53 CTD (Homo sapiens) (UniProt P04637); assay: FP
p53 CTD (Homo sapiens) [3] = target: p53 CTD (Homo sapiens) (UniProt P04637); assay: FP; remark: listed apart in the source
p53 CTD (Homo sapiens) [4] = target: p53 CTD (Homo sapiens) (UniProt P04637); assay: FP; remark: listed apart in the source
p53 CTD (Homo sapiens) [5] = target: p53 CTD (Homo sapiens) (UniProt P04637); assay: FP; remark: listed apart in the source
p53 CTD (Homo sapiens) [6] = target: p53 CTD (Homo sapiens) (UniProt P04637); assay: FP; remark: listed apart in the source
p53 CTD (Homo sapiens) [7] = target: p53 CTD (Homo sapiens) (UniProt P04637); assay: FP; remark: listed apart in the source
p53 CTD (Homo sapiens) [8] = target: p53 CTD (Homo sapiens) (UniProt P04637); assay: FP; remark: listed apart in the source
p53 CTD (Homo sapiens) [9] = target: p53 CTD (Homo sapiens) (UniProt P04637); assay: ITC
p53 CTD (Homo sapiens) [10] = target: p53 CTD (Homo sapiens) (UniProt P04637); assay: FP; remark: listed apart in the source
p53 CTD (Homo sapiens) [11] = target: p53 CTD (Homo sapiens) (UniProt P04637); assay: FP; remark: listed apart in the source
p53 CTD (Homo sapiens) [12] = target: p53 CTD (Homo sapiens) (UniProt P04637); assay: FP; remark: listed apart in the source
p53 CTD (Homo sapiens) [13] = target: p53 CTD (Homo sapiens) (UniProt P04637); assay: FP; remark: listed apart in the source
p53 CTD (Homo sapiens) [14] = target: p53 CTD (Homo sapiens) (UniProt P04637); assay: FP; remark: listed apart in the source
p53 CTD (Homo sapiens) [15] = target: p53 CTD (Homo sapiens) (UniProt P04637); assay: FP; remark: listed apart in the source
p53 CTD (Homo sapiens) [16] = target: p53 CTD (Homo sapiens) (UniProt P04637); assay: FP; remark: listed apart in the source
p53 CTD (Homo sapiens) [17] = target: p53 CTD (Homo sapiens) (UniProt P04637); assay: FP; remark: listed apart in the source
p53 CTD (Homo sapiens) [18] = target: p53 CTD (Homo sapiens) (UniProt P04637); assay: FP; remark: listed apart in the source
14-3-3σ (Homo sapiens) [19] = target: 14-3-3σ (Homo sapiens) (UniProt P31947); assay: ITC
p53 CTD (Homo sapiens) [20] = target: p53 CTD (Homo sapiens) (UniProt P04637); assay: FP; remark: listed apart in the source
p53 CTD (Homo sapiens) [21] = target: p53 CTD (Homo sapiens) (UniProt P04637); assay: FP; remark: listed apart in the source
p53 CTD (Homo sapiens) [22] = target: p53 CTD (Homo sapiens) (UniProt P04637); assay: FP; remark: listed apart in the source
p53 CTD (Homo sapiens) [23] = target: p53 CTD (Homo sapiens) (UniProt P04637); assay: FP; remark: listed apart in the source
p53 CTD (Homo sapiens) [24] = target: p53 CTD (Homo sapiens) (UniProt P04637); assay: FP; remark: listed apart in the source

14-3-3τ (Homo sapiens), sequence (P27348 whole entry): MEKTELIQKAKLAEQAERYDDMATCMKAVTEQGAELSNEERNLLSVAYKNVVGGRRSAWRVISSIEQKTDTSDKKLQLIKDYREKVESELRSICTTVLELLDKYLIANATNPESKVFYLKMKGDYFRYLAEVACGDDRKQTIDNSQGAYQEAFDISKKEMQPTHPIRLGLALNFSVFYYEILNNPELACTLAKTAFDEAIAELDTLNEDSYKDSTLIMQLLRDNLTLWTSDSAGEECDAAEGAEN
14-3-3τ, sequence (P27348 whole entry): as above
14-3-3σ, sequence (P31947 whole entry): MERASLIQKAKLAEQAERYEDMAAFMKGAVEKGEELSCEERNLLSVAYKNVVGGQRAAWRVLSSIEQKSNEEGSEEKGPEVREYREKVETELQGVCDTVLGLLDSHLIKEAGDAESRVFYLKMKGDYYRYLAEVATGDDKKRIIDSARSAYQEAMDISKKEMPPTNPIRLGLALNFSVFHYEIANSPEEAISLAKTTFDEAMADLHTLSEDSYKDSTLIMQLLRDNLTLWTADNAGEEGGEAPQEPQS
14-3-3σ (Homo sapiens), sequence (P31947 whole entry): as above
14-3-3γ (Homo sapiens), sequence (P61981 2-247): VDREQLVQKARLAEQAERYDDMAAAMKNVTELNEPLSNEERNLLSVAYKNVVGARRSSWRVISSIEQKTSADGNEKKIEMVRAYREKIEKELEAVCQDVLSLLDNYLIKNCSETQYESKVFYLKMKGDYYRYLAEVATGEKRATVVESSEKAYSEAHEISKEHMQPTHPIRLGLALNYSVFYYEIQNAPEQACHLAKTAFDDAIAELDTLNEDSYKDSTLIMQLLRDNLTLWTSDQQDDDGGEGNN
14-3-3γ, sequence (P61981 2-247): as above
p53 CTD pS378 peptide, sequence (P04637 361-393): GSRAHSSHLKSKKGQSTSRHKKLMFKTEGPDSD
p53 CTD pS366/pS378 peptide, sequence (P04637 361-393): as above
p53 CTD pS366 peptide, sequence (P04637 361-393): as above
p53 CTD pT387 peptide, sequence (P04637 361-393): as above
p53 CTD pS366/pT387 peptide, sequence (P04637 361-393): as above
p53 CTD pS378/pT387 peptide, sequence (P04637 361-393): as above
14-3-3ε (Homo sapiens), sequence (P62258 whole entry): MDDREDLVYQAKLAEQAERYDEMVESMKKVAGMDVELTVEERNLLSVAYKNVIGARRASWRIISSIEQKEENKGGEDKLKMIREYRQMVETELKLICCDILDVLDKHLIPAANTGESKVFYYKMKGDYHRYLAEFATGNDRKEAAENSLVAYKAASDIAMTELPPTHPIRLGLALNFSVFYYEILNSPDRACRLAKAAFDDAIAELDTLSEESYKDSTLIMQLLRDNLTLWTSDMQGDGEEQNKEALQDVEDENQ
14-3-3ε, sequence (P62258 whole entry): as above
p53 CTD (Homo sapiens), sequence (P04637 363-393): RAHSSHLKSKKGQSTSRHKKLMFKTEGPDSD

In the case of “p53 CTD pS366 peptide (from UniProt P04637)”, the Kd (14-3-3τ (Homo sapiens)) is given as 28 µM, the Kd (14-3-3γ (Homo sapiens)) is given as 17 µM and the Kd (14-3-3ε (Homo sapiens)) is given as 16 µM. The Kd (14-3-3σ (Homo sapiens) [1]) was 24 µM.

For 14-3-3γ (from UniProt P61981), the Kd (p53 CTD (Homo sapiens) [2]) is given as 0.45 µM, the Kd (p53 CTD (Homo sapiens) [3]) is given as 14 µM and the Kd (p53 CTD (Homo sapiens) [4]) is given as 20 µM. The Kd (p53 CTD (Homo sapiens) [5]) was 0.48 µM, the Kd (p53 CTD (Homo sapiens) [6]) was 0.14 µM and the Kd (p53 CTD (Homo sapiens) [7]) was 17 µM.

For “p53 CTD pS378/pT387 peptide (from UniProt P04637)”, the Kd (14-3-3τ (Homo sapiens)) is given as 3.3 µM, the Kd (14-3-3γ (Homo sapiens)) is given as 0.45 µM and the Kd (14-3-3ε (Homo sapiens)) is given as 0.8 µM. For the same substance, the Kd (14-3-3σ (Homo sapiens) [1]) was 7.3 µM.

For “p53 CTD pS366/pT387 peptide (from UniProt P04637)”, the Kd (14-3-3τ (Homo sapiens)) is listed as 6.2 µM, the Kd (14-3-3γ (Homo sapiens)) is listed as 0.14 µM and the Kd (14-3-3ε (Homo sapiens)) is listed as 0.18 µM. For the same substance, the Kd (14-3-3σ (Homo sapiens) [1]) was 3.5 µM.

In the case of 14-3-3σ (from UniProt P31947), the Kd (p53 CTD (Homo sapiens) [2]) is listed as 23 µM, the Kd (p53 CTD (Homo sapiens) [8]) is listed as 7.3 µM and the Kd (p53 CTD (Homo sapiens) [9]) is listed as 16.3 µM. The Kd (p53 CTD (Homo sapiens) [10]) was 3.5 µM, the Kd (p53 CTD (Homo sapiens) [11]) was 24 µM and the Kd (p53 CTD (Homo sapiens) [12]) was 22 µM. For the same substance, the Kd (p53 CTD (Homo sapiens) [13]) was 2.2 µM.

For 14-3-3ε (from UniProt P62258), the Kd (p53 CTD (Homo sapiens) [14]) is listed as 0.51 µM, the Kd (p53 CTD (Homo sapiens) [2]) is listed as 16 µM and the Kd (p53 CTD (Homo sapiens) [15]) is listed as 11 µM. For the same substance, the Kd (p53 CTD (Homo sapiens) [16]) was 0.18 µM, the Kd (p53 CTD (Homo sapiens) [17]) was 0.8 µM and the Kd (p53 CTD (Homo sapiens) [18]) was 18 µM.

For p53 pT387 peptide (from UniProt P04637), the Kd (14-3-3σ (Homo sapiens) [19]) is listed as 16.3 µM.

In the case of “p53 CTD pS366/pS378 peptide (from UniProt P04637)”, the Kd (14-3-3τ (Homo sapiens)) is listed as 2.1 µM, the Kd (14-3-3γ (Homo sapiens)) is listed as 0.48 µM and the Kd (14-3-3ε (Homo sapiens)) is listed as 0.51 µM. For the same substance, the Kd (14-3-3σ (Homo sapiens) [1]) was 2.2 µM.

In the case of “p53 CTD pS378 peptide (from UniProt P04637)”, the Kd (14-3-3τ (Homo sapiens)) is given as 27 µM, the Kd (14-3-3γ (Homo sapiens)) is given as 20 µM and the Kd (14-3-3ε (Homo sapiens)) is given as 18 µM. The Kd (14-3-3σ (Homo sapiens) [1]) was 22 µM.

For “p53 CTD pT387 peptide (from UniProt P04637)”, the Kd (14-3-3τ (Homo sapiens)) is listed as 24 µM, the Kd (14-3-3γ (Homo sapiens)) is listed as 14 µM and the Kd (14-3-3ε (Homo sapiens)) is listed as 11 µM. The Kd (14-3-3σ (Homo sapiens) [1]) was 23 µM.

In the case of 14-3-3τ (from UniProt P27348), the Kd (p53 CTD (Homo sapiens) [20]) is listed as 27 µM, the Kd (p53 CTD (Homo sapiens) [2]) is listed as 6.2 µM and the Kd (p53 CTD (Homo sapiens) [21]) is listed as 2.1 µM. For the same substance, the Kd (p53 CTD (Homo sapiens) [22]) was 24 µM, the Kd (p53 CTD (Homo sapiens) [23]) was 3.3 µM and the Kd (p53 CTD (Homo sapiens) [24]) was 28 µM.
